This is an account of results in patent US20250026813A1 (published 2025).

Changes are numbered by the printed parent chain.

B1: YANG-2305 (antibody, V domains shown)
VH: QVQLVESGGGVVQPGRSLRLSCAASGFTFSSYGMHWVRQAPGKGLEWVAIIWYDGSKKYYADSVKGRFTISRDNSKNTLNLQMNSLRAEDTAVYYCAREEDIVASGGLYYNFNGMDVWGQGTTVTVSS
VL: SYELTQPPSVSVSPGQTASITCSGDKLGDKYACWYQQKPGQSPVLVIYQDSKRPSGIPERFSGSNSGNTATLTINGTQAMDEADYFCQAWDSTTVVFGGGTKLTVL
B2: YANG-2302 (antibody, V domains shown)
VH: QVQLVQSGAEVRKPGASVKVSCKVSGYTLPELAIHWVRQAPGKGLEWMGGFIPEDGDTIYAQKFQGRVTMTEDTSTDTAYMDLTSLRSEDAAVYYCTSGWAAPGYNYGMAVWGQGTTVTVSS
VL: EVVLTQSPGTLSLSSGERATLSCRASQSVSSNYLAWYQKKPGQAPRLLIYGASSRVTGIPDRFGGSGSGTDFTLTISRLEPEDFAVYYCQQYDASPYSFGQGTKLDIK
B3: YANG-2301 (antibody, V domains shown)
VH: QVHLIQSGAEVKKPGASVKVSCKVSGYTLIEVSVHWVRQAPGKGLEWMGGFDPEAAETIYAQKFQGRVTMTEDTSTDTAYMDLSSLKSEDSAVYYCAIGPAVTGRNSGEYYYYYGMDVWGQGTTVTVAS
VL: EIVMTQSPATLSVSPGERATLSCRASQSVNSNLAWYQQKPGQAPRLLIYAVSTRATGLPARFSGSGSGTEFTLTISSLQSEDFVVYYCHQYNNWPLTFGGGTKVEIK
B4: YANG-2303 (antibody, V domains shown)
VH: QVQLVQSGAEVKKPGASVRVSCKVSGYTLPELAIHWVRQAPGKGLEWMGGFDPEDGETIYAQKFQGRVIMTEDTSTDTAYMDLSSLRSEDTAVYYCVKTWAAPGYNYGLDTWGQGTTVTVSS
VL: EIVLTQSPGILSLSPGESATLSCRASQSIASNYLAWFQQKPGQAPRLLIYGASSRAAGFPDRFSGSGSGTDFTLTIKRLEPEDSAVYYCQHYGSSPCSFGQGTNLEIK
B5: YANG-2205 (antibody, V domains shown)
VH: QIQLVQSGAEVKKPGASVKFSCKTSGYTFTSYYMVWVRQAPGQGLEWMGIIKPSGGNTIYAQKFQGRVTMTRDTSTNTVYMDLSSLRSEDTAVYYCARTGDRAFDVWGHGTMITVSS
VL: QSVLTQPPSVSAAPGQKVTISCSGSSSNIGNNFVSWYQQFPGTAPKLLIYDNNKRPSGIPDRFSGSKSGTSATLGITGLQTGDEADYYCGTWDSSLGAGVFGGGTKLTVL
B6: YANG-2208 (antibody, V domains shown)
VH: B5 VH with K12R, K19R, T28I, S31N, S84N, S85N, Y95F, H109Q, I113V
VL: B5 VL with V10M, S25N, Q38R, G97S
B7: YANG-2207 (antibody, V domains shown)
VH: B5 VH with I2M, F20I, S31N, M81L, D101N, I113V
VL: B5 VL
B8: YANG-2206 (antibody, V domains shown)
VH: B5 VH with F20L, Y60F, S84N, I113V
VL: B5 VL with F33Y, L107V
B9: YANG-2304 (antibody, V domains shown)
VH: QVQLVQSGTEVKKPGASVKVSCKVSGYTLPELAIHWVRQAPGKGLEWMGTFDPEDGETICAQKFQGRVTMTEDTSTDTAYMDLSSLRSEDTAVYYCATTSIIAARWWFDPWGQGTLVTVSS
VL: QSALTQPPSASGSPGQSVTISCTGTSSDVGGYDYVSWYQQHPGKAPKLMIYEVSKRPSGVPDRFSGSKSGNTASLTVSGLQAEDEADYYCSSFAGSNNVVFGGGAKLTVL
B10: YANG-2306 (antibody, V domains shown)
VH: QVQLVQSGAEVKKPGASVKVSCKVSGYTLPEISIHWVRQAPGKGLEWMGGFDPEDGETIYAQKFQGRVIMTEDTSTDTAYMDLSSLRSEDTAVYFCAAAPAIASASTFWLDPWGQGTLVTVST
VL: B9 VL with D33N, S54T, G70D, F93Y, V99L, A105T
B11: IMPI-024 (antibody, V domains shown)
VH: EVQLVQSGAEVKKPGESLKISCKGSGYSFTSYWIGWVRQMPGKGLEWMGIIYPGDSDTRYSPSFQGQVTISADKSISTAYLQWSSLKASDTAMYYCVRSYNWNYFDYWGQGTLVTVSS
VL: AIQLTQSPSSLSASVGDRVTITCRASQGISSGLAWYQQKAGKAPKLLIYDVSSLESGVPSRFSGSGSGTDFTLTISSLQPEDFATYYCQQFLSYPWTFGQGTKVEIK
B12: IMPI-063 (antibody, V domains shown)
VH: EVQLVESGGGVVRPGGSLRLSCAASGFTFDDYGMSWVRQAPGKGLEWVSGIYWNGGSTGYADSVKGRFTISRDNAKNSLYLQMNSLRAEDMALYYCARGVGATDYWGQGTLVTVSS
VL: EIVLTQSPGTLSLSSGERATLACRASESVRGSFLAWYQQKPGQAPRLLIYGASRRATGIPDRFSGSGSGTDFTLTISRLEPEDFAVYYCQQYGNSPMCSFGQGTKLEIK
B13: IMPI-029 (antibody, V domains shown)
VH: EVQLVESGGGLIQPGGSLRLSCAASGVTVSSNYMNWVRQAPGKGLEWVSVIYSGGSTYYADSVKGRFTISRDNSKNTLFLQMNSLRAEDSAVYYCARDLGPYGVDVWGQGTTVTVSS
VL: DIQLTQSPSFLSASVGDRVTITCWASQGISSYLAWYQQKPGKAPKLLIYAASTLQSGVPSRFSGSGSGTEFTLTISSLQPEDFATYYCQELNSYPLTFGQGTRLEIK
B14: IMPI-005 (antibody, V domains shown)
VH: B13 VH with V27F
VL: B13 VL
B15: IMPI-021 (antibody, V domains shown)
VH: B13 VH with N35S, Y58F, F79Y, S90T, G100S, P101Y, V104M
VL: B13 VL with R61K, E90Q, L96C, T97S, R103K
B16: IMPI-060 (antibody, V domains shown)
VH: B13 VH with N35S, Y58F, F79Y, S90T, G100S, P101Y, V104M
VL: B13 VL with R61K, E90Q, L96S, T97S, R103K
B17: IMPI-054 (antibody, V domains shown)
VH: EVQLVESGGGLIQPGGSLRLSCAASGLTVSSNYMSWVRQAPGKGLEWVSIIYSGGSTYYADSVKGRFTISRDNSKNTLYLQMNSLRAEDTAVYYCARLGGYYYYGMDVWGQGTTVTVSS
VL: DIQMTQSPSSLSASVGERVTITCQASQDIRNYLNWYQKKPGKAPKLLIYDSSNLETGVPSRFSGSGSGTDFTFTISSLQPEDIATYYCQQYDNLPITFGQGTRLEIK
B18: IMPI-042 (antibody, V domains shown)
VH: B17 VH
VL: B17 VL with S65G
B19: IMPI-028 (antibody, V domains shown)
VH: EVQLVESGGGLIQPGGSLRLSCAASGFTVSSNYMSWVRQAPGKGLEWVSVIYSGGSTYYADSVKGRFTISRDNSKNTLYLQMNSLRAEDTAVYYCARDYGDLYFDYWGQGTLVTVSS
VL: EIVLTQSPGTLSLSPGERATLSCRASQSISSYLAWYQQKPGQAPRLLIYGASSRATGIPDKFSGSGSGTDFTLTISRLEPEDFAVYYCQQYGSSPRTFGQGTKVEIK
B20: IMPI-038 (antibody, V domains shown)
VH: QVQLVESGGGVVQPGRSLRLSCAASGFTFSSYGMHWVRQAPGKGLEWVAVISYDGSDKYYADSVKGRFTISRDNSKNTLYLQMNSLRAEDTAVYYCAKTVAGYYYYYYGMDVWGQGTTVTVSS
VL: DIQMTQSPSSVSASVGDRVTVTCRASQDISSWLAWFQQKPGKAPKFLIYDASNLENGVPSRFSGSGSGTDFTLTISSLQPEDFATYYCQQAKSFPWTFGQGTKVEIN
B21: IMPI-004 (antibody, V domains shown)
VH: QVQLVESGGGVVQPGRSLRLSCAASGFTFSSYGMHWVRQAPGKGLEWVAVIWYDGGNKYYADSVKGRFTISRDNSKNTLYLQMNSLRAEDTAVYYCARVNVLMGYGMDVWGQGTTVTVSS
VL: EIVLTQSPGTLSLSPGDKATLSCRASQSIISSFLAWYQQKPGQAPRLLIYGASSRATGIPDRFSGSGSGTDFTLTISRLEPEDFAVYYCQQYGSSLTFGGGTKVEIK
B22: IMPI-013 (antibody, V domains shown)
VH: EVQLVESGGGLVQPGRSLRLSCAASGFTFDDYAMHWVRQTPGKGLEWVSGISWNSGSIGYADSVKGRFTISRDNAKNSLYLQMNSLRAEDTALYYCTKDLGLGIGFYYGLDVWGQGTTVTVSS
VL: AIQMTQSPSSLSTSVGDRVTITCRASQGIRNDLGWYQLKPGKAPKLLIYDASTLQSGVPSRFSGSGSGTDFTLTISSLEPEDLATYYCLHHYTYPWTFGHGTKVELK

One assay concerns the target SARS-CoV-2 spike protein bearing furin mutation and truncation in retention sequence, presented in t (SARS-CoV-2, UniProt P0DTC2 14-1273). As to the kind of experiment: cell-based or functional assay.
As for B1, the “PV neutralisation IC50” value was found to be 0.57 nM and the “PV neutralization % (Ab 1 ug/mL)” value was found to be 64.4%.
In the same order, the values of B2 are 0.61 nM and 52.2%.
The matching figures for B3: 0.53 nM and 56.4%.
Consider B4, for which the “PV neutralisation IC50” value stood at 0.48 nM and the “PV neutralization % (Ab 1 ug/mL)” value is 58.6%.
With B5, the “PV neutralisation IC50” value turned out to be 3.35 nM and the “PV neutralization % (Ab 1 ug/mL)” value worked out at 47.5%.
The matching figures for B6: 4.68 nM and 38.2%.
In the same order, the values of B7 are 2.59 nM and 57.8%.
Consider B8, for which the “PV neutralisation IC50” value was found to be 3.96 nM and the “PV neutralization % (Ab 1 ug/mL)” value is 42%.
Regarding B9, the “PV neutralisation IC50” value is 0.74 nM and the “PV neutralization % (Ab 1 ug/mL)” value amounted to 52.8%.
In the same order, the values of B10 are 0.43 nM and 60.4%.

The next assay deals with T1, S1 subunit of the SARS-CoV-2 spike protein (Sino Biological 40591-V08H), His tag (SARS-CoV-2, UniProt P0DTC2 16-685).
T1 construct: domain: S1 subunit
Assay: not given
As for B11, the “HTRF deltaF” value is 799 deltaF.
B12: the “HTRF deltaF” value is -0.4 deltaF.
On the same count and under the same terms, the result for B13 reads 3050 deltaF; that for B14, 1510 deltaF; that for B15, 1280 deltaF.
For the molecule B16, the “HTRF deltaF” value is 378 deltaF.
Still for that read-out and setting: the result for B17 reads 772 deltaF; that for B18, 617 deltaF.

In another assay the target is full-length stabilised spike trimer protein of SARS-CoV-2 virus (in-house, soluble ECD with trimeris (SARS-CoV-2, UniProt P0DTC2 14-1208; P10104 458-484).
Assay: not given
On to B11, for which the “HTRF deltaF” value came to 1460 deltaF.
For B12, the “HTRF deltaF” value is 968 deltaF.
Still for that read-out and setting: then B13, with 1700 deltaF.
Regarding B14, the “HTRF deltaF” value was found to be 1360 deltaF.
On the same count and under the same terms, the result for B15 reads 962 deltaF; that for B16, 488 deltaF.
Consider B17, for which the “HTRF deltaF” value was determined as 563 deltaF.
The same measure, in the same setting: then B18, with 926 deltaF; and B19, with 480 deltaF; and B20, with 1310 deltaF.
Turning to B21, the “HTRF deltaF” value was determined as 952 deltaF.
For the molecule B22, the “HTRF deltaF” value is 1420 deltaF.
